Test [1] concerns the target T1, human DR4 (Death Receptor 4), cell surface expressed on human tumor cell lines (human, UniProt O00220 24-468).
T1 construct: also called TNFRSF10A; TRAIL-R1
T1 sequence: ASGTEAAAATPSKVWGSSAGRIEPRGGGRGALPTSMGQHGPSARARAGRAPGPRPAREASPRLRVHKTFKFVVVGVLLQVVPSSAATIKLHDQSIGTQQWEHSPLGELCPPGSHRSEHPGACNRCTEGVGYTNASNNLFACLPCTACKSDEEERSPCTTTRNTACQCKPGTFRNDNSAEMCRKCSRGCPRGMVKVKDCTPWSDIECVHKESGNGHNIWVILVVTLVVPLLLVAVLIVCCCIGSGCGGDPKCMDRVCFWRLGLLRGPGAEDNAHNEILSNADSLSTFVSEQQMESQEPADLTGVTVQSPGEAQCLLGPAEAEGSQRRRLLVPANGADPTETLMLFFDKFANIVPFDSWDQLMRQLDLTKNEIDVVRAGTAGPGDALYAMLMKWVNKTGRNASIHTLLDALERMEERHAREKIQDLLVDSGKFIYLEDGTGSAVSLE
Put plainly: flow cytometry, A549 cells, n = 3.

In test [2] the target is T1, human DR4 (Death Receptor 4), cell …. Put plainly: flow cytometry, DLD-1 cells, n = 1.
Test [3] shares this target. Briefly: flow cytometry, PANC-1 cells, n = 3.
Test [4] shares this target. Put plainly: flow cytometry, HCT-116 cells, n = 1.
The target is the same in test [5]. Put plainly: flow cytometry, MDA-MB-231 cells, n = 2.
Test [6] shares this target. Put plainly: flow cytometry, A549 cells, average ± SEM.
The target of test [7] is T2, human FAPα (Fibroblast activation protein alpha), cell surface expressed (human, UniProt Q12884 1-760).
T2 construct: Endogenous on human lung fibroblasts and CAFs
T2 sequence: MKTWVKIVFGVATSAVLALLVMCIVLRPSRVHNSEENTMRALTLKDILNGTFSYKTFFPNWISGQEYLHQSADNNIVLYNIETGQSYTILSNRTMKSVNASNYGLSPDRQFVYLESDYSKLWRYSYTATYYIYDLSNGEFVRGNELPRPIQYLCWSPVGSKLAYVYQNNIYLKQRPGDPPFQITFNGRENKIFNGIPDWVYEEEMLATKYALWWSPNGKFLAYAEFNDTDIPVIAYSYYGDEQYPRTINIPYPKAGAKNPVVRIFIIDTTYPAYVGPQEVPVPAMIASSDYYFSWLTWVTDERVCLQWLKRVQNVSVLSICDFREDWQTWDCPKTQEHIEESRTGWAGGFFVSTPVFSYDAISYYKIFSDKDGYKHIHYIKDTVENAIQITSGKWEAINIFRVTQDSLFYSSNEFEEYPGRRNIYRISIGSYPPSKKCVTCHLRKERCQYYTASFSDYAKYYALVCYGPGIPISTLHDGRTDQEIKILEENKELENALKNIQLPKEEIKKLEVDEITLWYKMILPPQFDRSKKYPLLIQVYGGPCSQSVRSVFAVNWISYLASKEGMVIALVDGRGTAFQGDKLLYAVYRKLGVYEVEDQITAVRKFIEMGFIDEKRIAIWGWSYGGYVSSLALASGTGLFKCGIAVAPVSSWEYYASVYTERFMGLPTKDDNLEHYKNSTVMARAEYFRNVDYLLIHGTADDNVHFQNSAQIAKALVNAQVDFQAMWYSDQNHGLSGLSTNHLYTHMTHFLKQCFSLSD
Briefly: flow cytometry, Expi293F cells expressing human FAPα, n = 2. On the procedure: (§1) Binding of BisG1-FAPα-FERL/DR4-FERR, BisG1-FAPα-FEAL/b12-FEAR and IgG1-FAPα-FERL to FAPα of species commonly used for nonclinical toxicology studies was assessed by flow cytometry using Expi293F cells transiently expressing FAPα from different animal species. IgG1-b12 was included as negative control.
(§2) Expi293F cells expressing recombinant FAPα from various species (human, cynomolgus monkey, dog, pig, rat or mouse) were seeded (20,000 cells/well) in 96-Well round bottom plates (Greiner Bio-one, Cat #650101). Antibody dilutions were prepared using FACS buffer, consisting of PBS (Capricorn Scientific, Cat #PBS-10XA, diluted to 1×PBS in distilled water)+1% BSA (Roche, Cat #10735086001)+0.02% Sodium Azide (Bio-World, Cat #41920044-3). Plates were centrifuged, supernatant was removed, and cells were resuspended in 100 μL of antibody dilutions (concentration range 30-0.00017 μg/mL with three-fold serial dilutions using FACS buffer) of BisG1-FAPα-FERL/DR4-FERR, BisG1-FAPα-FEAL/b12-FEAR, IgG1-FAPα-FERL and IgG1-b12 and incubated for 30 min at 4° C. […] After 30 min incubation at 4° C., cells were washed with FACS buffer and resuspended in FACS buffer supplemented with TO-PRO-3 Iodide viability marker (Invitrogen, Cat #T3605, diluted 1:4,000). Antibody binding to viable cells (gMFI of PE on TO-PRO-3 negative cells) was analyzed by flow cytometry on a FACS Celesta and FACS_Diva software (first two experiments) or iQue® 3 and FlowJo software (last experiment). gMFI was determined and visualized using GraphPad Prism. Binding curves were analyzed using nonlinear regression analysis. The concentration (pg/mL) at which 50% of the maximal effect was observed (EC₅₀) was derived from the fitted curves.

Test [8] deals with T2, human FAPα (Fibroblast activation …). Put plainly: flow cytometry, Expi293F cells expressing human FAPα, n = 3. On the procedure:
as §1, §2

Where a chain is given by its changes, count along the chain named.

B1: IgG1-DR4-FERR (antibody, V domains shown)
VH: QVQLQESGPGLVKPSGTLSLTCAVSGGSISSYSWWSWIRQPPGKGLEWIGELYHSGSTNYNPSLKSRVTISVDKSKNQFSLKLRSVTAADTAVYYCVRGVATIDYWGQGTLVTVSS
VL: QSALTQPPSASGSPGQSVTISCTGTSSDVGGYNFVSWYQQDPGKAPKLLIYEVTKRPSGVPDRFSGSKSGNTASLTVSGLQAEDEADYYCSSYAGSNNVMFGGGTKLTVLG
notes: Bivalent monoclonal IgG1 lambda
Regarding B1, the EC50 in test [1] stood at 0.21 µg/mL; in test [2], 0.33 µg/mL; in test [3], 0.39 µg/mL; in test [4], 0.22 µg/mL; in test [5], 0.27 µg/mL; in test [6] it was 0.32 µg/mL.

B2: BisG1-FAPα-FEAL/b12-FEAR (bispecific antibody, human IgG1, kappa)
heavy 1: EVQLLESGGGLVQPGGSPRLSCEASGFTFSSYALSWVRQAPGKGLEWVSAISGSGGGRYYADSVKGRFTISRDNSKNTLFLQMNSLRAEDTAVYYCAKEGYSSSGTYWDHWGQGTLVTVSSASTKGPSVFPLAPSSKSTSGGTAALGCLVKDYFPEPVTVSWNSGALTSGVHTFPAVLQSSGLYSLSSVVTVPSSSLGTQTYICNVNHKPSNTKVDKRVEPKSCDKTHTCPPCPAPEFEGGPSVFLFPPKPKDTLMISRTPEVTCVVVAVSHEDPEVKFNWYVDGVEVHNAKTKPREEQYNSTYRVVSVLTVLHQDWLNGKEYKCKVSNKALPAPIEKTISKAKGQPREPQVYTLPPSREEMTKNQVSLTCLVKGFYPSDIAVEWESNGQPENNYKTTPPVLDSDGSFLLYSKLTVDKSRWQQGNVFSCSVMHEALHNHYTQKSLSLSPG
light 1: AIQMTQSPSSVSASVGDRVTITCRASQGVSSWLAWYQQKPGRAPKLLIYVASTLQSGVPSRFSGSGSGTDFTLTINSLQPEDFATYYCQQANSFPPTFGQGTRLEMKRTVAAPSVFIFPPSDEQLKSGTASVVCLLNNFYPREAKVQWKVDNALQSGNSQESVTEQDSKDSTYSLSSTLTLSKADYEKHKVYACEVTHQGLSSPVTKSFNRGEC
heavy 2: QVQLVQSGAEVKKPGASVKVSCQASGYRFSNFVIHWVRQAPGQRFEWMGWINPYNGNKEFSAKFQDRVTFTADTSANTAYMELRSLRSADTAVYYCARVGPYSWDDSPQDNYYMDVWGKGTTVIVSSASTKGPSVFPLAPSSKSTSGGTAALGCLVKDYFPEPVTVSWNSGALTSGVHTFPAVLQSSGLYSLSSVVTVPSSSLGTQTYICNVNHKPSNTKVDKRVEPKSCDKTHTCPPCPAPEFEGGPSVFLFPPKPKDTLMISRTPEVTCVVVAVSHEDPEVKFNWYVDGVEVHNAKTKPREEQYNSTYRVVSVLTVLHQDWLNGKEYKCKVSNKALPAPIEKTISKAKGQPREPQVYTLPPSREEMTKNQVSLTCLVKGFYPSDIAVEWESNGQPENNYKTTPPVLDSDGSFFLYSRLTVDKSRWQQGNVFSCSVMHEALHNHYTQKSLSLSPG
light 2: EIVLTQSPGTLSLSPGERATFSCRSSHSIRSRRVAWYQHKPGQAPRLVIHGVSNRASGISDRFSGSGSGTDFTLTITRVEPEDFALYYCQVYGASSYTFGQGTKLERKRTVAAPSVFIFPPSDEQLKSGTASVVCLLNNFYPREAKVQWKVDNALQSGNSQESVTEQDSKDSTYSLSSTLTLSKADYEKHKVYACEVTHQGLSSPVTKSFNRGEC
notes: Fab-arm exchange of IgG1-FAPα-FEAL and IgG1-b12-FEAR
As to B2, the EC50 in test [7] was 0.16 µg/mL; in test [8], 0.61 µg/mL.

B3: IgG1-FAPα-FERL (antibody)
heavy: B2 heavy 1 with G240R, A269D
light: B2 light 1
notes: Bivalent monoclonal IgG1 kappa
Take B3: the EC50 in test [7] was found to be 0.12 µg/mL; in test [8], 0.32 µg/mL.

B4: BisG1-b12-FERL/DR4-FERR (bispecific antibody, human IgG1, kappa, lambda)
heavy 1: B2 heavy 2 with G246R, A275D, F415L, R419K
light 1: B2 light 2
heavy 2: QVQLQESGPGLVKPSGTLSLTCAVSGGSISSYSWWSWIRQPPGKGLEWIGELYHSGSTNYNPSLKSRVTISVDKSKNQFSLKLRSVTAADTAVYYCVRGVATIDYWGQGTLVTVSSASTKGPSVFPLAPSSKSTSGGTAALGCLVKDYFPEPVTVSWNSGALTSGVHTFPAVLQSSGLYSLSSVVTVPSSSLGTQTYICNVNHKPSNTKVDKRVEPKSCDKTHTCPPCPAPEFERGPSVFLFPPKPKDTLMISRTPEVTCVVVDVSHEDPEVKFNWYVDGVEVHNAKTKPREEQYNSTYRVVSVLTVLHQDWLNGKEYKCKVSNKALPAPIEKTISKAKGQPREPQVYTLPPSREEMTKNQVSLTCLVKGFYPSDIAVEWESNGQPENNYKTTPPVLDSDGSFFLYSRLTVDKSRWQQGNVFSCSVMHEALHNHYTQKSLSLSPG
light 2: QSALTQPPSASGSPGQSVTISCTGTSSDVGGYNFVSWYQQDPGKAPKLLIYEVTKRPSGVPDRFSGSKSGNTASLTVSGLQAEDEADYYCSSYAGSNNVMFGGGTKLTVLGQPKAAPSVTLFPPSSEELQANKATLVCLISDFYPGAVTVAWKADSSPVKAGVETTTPSKQSNNKYAASSYLSLTPEQWKSHRSYSCQVTHEGSTVEKTVAPTECS
notes: Fab-arm exchange of IgG1-b12-FERL and IgG1-DR4-FERR; also called bsIgG1-ctrl-FERLxDR4-FERR
As for B4, the concentration giving a half-maximal response (EC50) in test [1] is 0.78 µg/mL; in test [2] it was 0.85 µg/mL; in test [3], 1.44 µg/mL; in test [4], 0.51 µg/mL; in test [5] it was 1 µg/mL; in test [6], 0.78 µg/mL.

The record behind these values is patent publication US20250002610A1 (Genmab, published 2025).
